{
  "source": "patent US10472401B2",
  "about": "“Peptides and combination of peptides for use in immunotherapy against ovarian cancer and other cancers” (immatics biotechnologies GmbH, priority 2015, dated 2019)",
  "data": [
    {"target": "HLA-A*02:01 (Homo sapiens, UniProt P04439, D140Y/D185E/D98H/E176V/E277Q/G131W/G231S/I119V/I121R/I166T/I218V/L300P/L318F/N151K/N90K/P208A/P217A/Q86G/Q94H/R138H/R169H/T345S)", "assay": "MHC binding assay (UV-ligand exchange, ELISA of stabilized MHC complexes)", "details": "MHC class I binding score; binding to HLA-A*02:01 ranged by peptide exchange yield (UV-ligand exchange, ELISA)", "text": "Candidate peptides for T cell based therapies according to the present invention were further tested for their MHC binding capacity (affinity). The individual peptide-MHC complexes were produced by UV-ligand exchange, where a UV-sensitive peptide is cleaved upon UV-irradiation, and exchanged with the peptide of interest as analyzed. Only peptide candidates that can effectively bind and stabilize the peptide-receptive MHC molecules prevent dissociation of the MHC complexes. To determine the yield of the exchange reaction, an ELISA was performed based on the detection of the light chain (β2m) of stabilized MHC complexes. The assay was performed as generally described in Rodenko et al. (Rodenko et al., 2006).\n96 well MAXISorp plates (NUNC) were coated over night with 2 ug/ml streptavidin in PBS at room temperature, washed 4× and blocked for 1h at 37° C. in 2% BSA containing blocking buffer. […] Peptide-MHC monomers of the UV-exchange reaction were diluted 100 fold in blocking buffer. Samples were incubated for 1h at 37° C., washed four times, incubated with 2 ug/ml HRP conjugated anti-82m for 1h at 37° C., washed again and detected with TMB solution that is stopped with […]. Absorption was measured at 450 nm. Candidate peptides that show a high exchange yield (preferably higher than 50%, most preferred higher than 75%) are generally preferred for a generation and production of antibodies or fragments thereof, and/or T cell receptors or fragments thereof, as they show sufficient avidity to the MHC molecules and prevent dissociation of the MHC complexes.", "values": [
      {"substance": "54 (SLLEQGKEPWMV; listed as Homo sapiens) [compound 54]", "Peptide exchange": "″+++″ (≥50% = +++)"},
      {"substance": "486 (AVMESIQGV; listed as Homo sapiens) [compound 486]", "Peptide exchange": "″+++″ (≥50% = +++)"},
      {"substance": "76 (ILIDSIYKV; listed as Homo sapiens) [compound 76]", "Peptide exchange": "″+++″ (≥50% = +++)"},
      {"substance": "490 (FLLQHVQEL; listed as Homo sapiens) [compound 490]", "Peptide exchange": "″+++″ (≥50% = +++)"},
      {"substance": "497 (GLLEKLTAI; listed as Homo sapiens) [compound 497]", "Peptide exchange": "″+++″ (≥50% = +++)"},
      {"substance": "494 (ALQPEPIKV; listed as Homo sapiens) [compound 494]", "Peptide exchange": "″++″ (≥20% = ++)"},
      {"substance": "55 (SLLDLETLSL; listed as Homo sapiens) [compound 55]", "Peptide exchange": "″++++″ (≥75% = ++++)"},
      {"substance": "71 (GILARIASV; listed as Homo sapiens) [compound 71]", "Peptide exchange": "″+++″ (≥50% = +++)"},
      {"substance": "214 (FLLDLDPLLL; listed as Homo sapiens) [compound 214]", "Peptide exchange": "″+++″ (≥50% = +++)"},
      {"substance": "5 (HLTEVYPEL; listed as Homo sapiens) [compound 5]", "Peptide exchange": "″+++″ (≥50% = +++)"},
      {"substance": "530 (VMYADIGGMDI; listed as Homo sapiens) [compound 530]", "Peptide exchange": "″+++″ (≥50% = +++)"},
      {"substance": "585 (ALWDLAADKQTL; listed as Homo sapiens) [compound 585]", "Peptide exchange": "″++++″ (≥75% = ++++)"},
      {"substance": "396 (ALLPDLPAL; listed as Homo sapiens) [compound 396]", "Peptide exchange": "″+++″ (≥50% = +++)"},
      {"substance": "519 (GLLHLTLLL; listed as Homo sapiens) [compound 519]", "Peptide exchange": "″+++″ (≥50% = +++)"},
      {"substance": "191 (LLQEGQALEYV; listed as Homo sapiens) [compound 191]", "Peptide exchange": "″++″ (≥20% = ++)"},
      {"substance": "591 (SMAELDIKL; listed as Homo sapiens) [compound 591]", "Peptide exchange": "″+++″ (≥50% = +++)"},
      {"substance": "393 (GLLDTQTSQVLTA; listed as Homo sapiens) [compound 393]", "Peptide exchange": "″++″ (≥20% = ++)"},
      {"substance": "29 (KMLGIPISNILMV; listed as Homo sapiens) [compound 29]", "Peptide exchange": "″+++″ (≥50% = +++)"},
      {"substance": "476 (ALMERTGYSMV; listed as Homo sapiens) [compound 476]", "Peptide exchange": "″+++″ (≥50% = +++)"},
      {"substance": "129 (GLLDGGVDILL; listed as Homo sapiens) [compound 129]", "Peptide exchange": "″+++″ (≥50% = +++)"},
      {"substance": "193 (QLLDADGFLNV; listed as Homo sapiens) [compound 193]", "Peptide exchange": "″+++″ (≥50% = +++)"},
      {"substance": "308 (SQYSGQLHEV; listed as Homo sapiens) [compound 308]", "Peptide exchange": "″+++″ (≥50% = +++)"},
      {"substance": "135 (ALSEVDFQL; listed as Homo sapiens) [compound 135]", "Peptide exchange": "″+++″ (≥50% = +++)"},
      {"substance": "33 (VLLSLLEKV; listed as Homo sapiens) [compound 33]", "Peptide exchange": "″++″ (≥20% = ++)"},
      {"substance": "620 (KLLNKIYEA; listed as Homo sapiens) [compound 620]", "Peptide exchange": "″++++″ (≥75% = ++++)"},
      {"substance": "504 (GLSDGNPSL; listed as Homo sapiens) [compound 504]", "Peptide exchange": "″++″ (≥20% = ++)"},
      {"substance": "608 (SLLSVSHAL; listed as Homo sapiens) [compound 608]", "Peptide exchange": "″+++″ (≥50% = +++)"},
      {"substance": "451 (LLLLDTVTMQV; listed as Homo sapiens) [compound 451]", "Peptide exchange": "″++″ (≥20% = ++)"},
      {"substance": "500 (SLMEDQVLQL; listed as Homo sapiens) [compound 500]", "Peptide exchange": "″+++″ (≥50% = +++)"},
      {"substance": "21 (VLDELDMEL; listed as Homo sapiens) [compound 21]", "Peptide exchange": "″++″ (≥20% = ++)"},
      {"substance": "245 (SMIDDLLGV; listed as Homo sapiens) [compound 245]", "Peptide exchange": "″+++″ (≥50% = +++)"},
      {"substance": "27 (ILADIVISA; listed as Homo sapiens) [compound 27]", "Peptide exchange": "″+++″ (≥50% = +++)"},
      {"substance": "4 (GIMEHITKI; listed as Homo sapiens) [compound 4]", "Peptide exchange": "″++++″ (≥75% = ++++)"},
      {"substance": "457 (SLLPGNLVEKV; listed as Homo sapiens) [compound 457]", "Peptide exchange": "″+++″ (≥50% = +++)"},
      {"substance": "152 (ILFEDIFDV; listed as Homo sapiens) [compound 152]", "Peptide exchange": "″+++″ (≥50% = +++)"},
      {"substance": "286 (YLFPGIPEL; listed as Homo sapiens) [compound 286]", "Peptide exchange": "″+++″ (≥50% = +++)"},
      {"substance": "266 (KITDTLIHL; listed as Homo sapiens) [compound 266]", "Peptide exchange": "″+++″ (≥50% = +++)"},
      {"substance": "549 (AMLENASDIKL; listed as Homo sapiens) [compound 549]", "Peptide exchange": "″+++″ (≥50% = +++)"},
      {"substance": "128 (YLFDDPLSAV; listed as Homo sapiens) [compound 128]", "Peptide exchange": "″++″ (≥20% = ++)"},
      {"substance": "405 (ALYDVFLEV; listed as Homo sapiens) [compound 405]", "Peptide exchange": "″++″ (≥20% = ++)"},
      {"substance": "335 (YSLSSVVTV; listed as Homo sapiens) [compound 335]", "Peptide exchange": "″+++″ (≥50% = +++)"},
      {"substance": "285 (QLLHVGVTV; listed as Homo sapiens) [compound 285]", "Peptide exchange": "″+++″ (≥50% = +++)"},
      {"substance": "509 (FLFDTKPLIV; listed as Homo sapiens) [compound 509]", "Peptide exchange": "″+++″ (≥50% = +++)"},
      {"substance": "136 (YLADPSNLFVV; listed as Homo sapiens) [compound 136]", "Peptide exchange": "″+++″ (≥50% = +++)"},
      {"substance": "119 (FLYIGDIVSL; listed as Homo sapiens) [compound 119]", "Peptide exchange": "″++++″ (≥75% = ++++)"},
      {"substance": "120 (ALLGIPLTLV; listed as Homo sapiens) [compound 120]", "Peptide exchange": "″+++″ (≥50% = +++)"},
      {"substance": "340 (ALLSMTFPL; listed as Homo sapiens) [compound 340]", "Peptide exchange": "″++++″ (≥75% = ++++)"},
      {"substance": "232 (ALLEAQDVELYL; listed as Homo sapiens) [compound 232]", "Peptide exchange": "″++″ (≥20% = ++)"},
      {"substance": "379 (IMEGTLTRV; listed as Homo sapiens) [compound 379]", "Peptide exchange": "″++″ (≥20% = ++)"},
      {"substance": "560 (ALWDIETGQQTTT; listed as Homo sapiens) [compound 560]", "Peptide exchange": "″+++″ (≥50% = +++)"},
      {"substance": "554 (LLMPSSEDLLL; listed as Homo sapiens) [compound 554]", "Peptide exchange": "″+++″ (≥50% = +++)"},
      {"substance": "171 (LLLPLQILL; listed as Homo sapiens) [compound 171]", "Peptide exchange": "″+++″ (≥50% = +++)"},
      {"substance": "140 (YMDAPKAAL; listed as Homo sapiens) [compound 140]", "Peptide exchange": "″++″ (≥20% = ++)"},
      {"substance": "474 (YLDPALELGPRNV; listed as Homo sapiens) [compound 474]", "Peptide exchange": "″+++″ (≥50% = +++)"},
      {"substance": "205 (SLYPGTETMGL; listed as Homo sapiens) [compound 205]", "Peptide exchange": "″+++″ (≥50% = +++)"},
      {"substance": "169 (NLPEYLPFV; listed as Homo sapiens) [compound 169]", "Peptide exchange": "″+++″ (≥50% = +++)"},
      {"substance": "61 (FLQGYQLHL; listed as Homo sapiens) [compound 61]", "Peptide exchange": "″++++″ (≥75% = ++++)"},
      {"substance": "170 (RLQETLSAA; listed as Homo sapiens) [compound 170]", "Peptide exchange": "″+++″ (≥50% = +++)"},
      {"substance": "553 (SLLNQDLHWSL; listed as Homo sapiens) [compound 553]", "Peptide exchange": "″++++″ (≥75% = ++++)"},
      {"substance": "95 (SVIPQIQKV; listed as Homo sapiens) [compound 95]", "Peptide exchange": "″+++″ (≥50% = +++)"},
      {"substance": "40 (TLLVKVFSV; listed as Homo sapiens) [compound 40]", "Peptide exchange": "″+++″ (≥50% = +++)"},
      {"substance": "186 (TLFFQQNAL; listed as Homo sapiens) [compound 186]", "Peptide exchange": "″++″ (≥20% = ++)"},
      {"substance": "122 (FLLAEDDIYL; listed as Homo sapiens) [compound 122]", "Peptide exchange": "″+++″ (≥50% = +++)"},
      {"substance": "345 (VIWKALIHL; listed as Homo sapiens) [compound 345]", "Peptide exchange": "″+++″ (≥50% = +++)"},
      {"substance": "552 (GLLDLPFRVGV; listed as Homo sapiens) [compound 552]", "Peptide exchange": "″++++″ (≥75% = ++++)"},
      {"substance": "217 (ALIHPVSTV; listed as Homo sapiens) [compound 217]", "Peptide exchange": "″++″ (≥20% = ++)"},
      {"substance": "442 (GLLGGGGVLGV; listed as Homo sapiens) [compound 442]", "Peptide exchange": "″+++″ (≥50% = +++)"},
      {"substance": "431 (SLVNVVPKL; listed as Homo sapiens) [compound 431]", "Peptide exchange": "″++″ (≥20% = ++)"},
      {"substance": "503 (SLNHFTHSV; listed as Homo sapiens) [compound 503]", "Peptide exchange": "″+++″ (≥50% = +++)"},
      {"substance": "106 (LLYDAVHIVSV; listed as Homo sapiens) [compound 106]", "Peptide exchange": "″+++″ (≥50% = +++)"},
      {"substance": "125 (VQIHQVAQV; listed as Homo sapiens) [compound 125]", "Peptide exchange": "″+++″ (≥50% = +++)"}
    ]}
  ]
}
